# Measurements taken from patent US20240317834A1, “COMPOSITIONS AND METHODS FOR NEUROLOGICAL DISEASES” (CODA BIOTHERAPEUTICS, INC., priority 2020, published 2024).
# Where a chain is given by its changes, count along the chain named. In names and notes the source's numbering stands.
# B1: CODA325: engineered chimeric LGIC receptor, L131G in SEQ ID NO: 33 (protein)
# chain: MRCSPGGVWLALAASLLHVSLQGEFQRKLYKELVKNYNPLERPVANDSQPLTVYFSLSLLQIMDVDEKNQVLTTNIWLQMSWTDHYLQWNVSEYPGVKTVRFPDGQIWKPDILLYNSADERFDATFHTNVGVNSSGHCQYLPPGIFKSSCPMDLKNFPMDVQTCKLKFGSWSYGGWSLDLQMQEADISGYIPNGEWDLVGIPGKRSERFYECCKEPYPDVTFTVTMRRRMGYYLIQMYIPSLLIVILSWISFWINMDAAPARVGLGITTVLTMTTQSSGSRASLPKVSYVKAIDIWMAVCLLFVFSALLEYAAVNFVSRQHKELLRFRRKRRHHKSPMLNLFQEDEAGEGRFNFSAYGMGPACLQAKDGISVKGANNSNTTNPPPAPSKSPEEMRKLFIQRAKKIDKISRIGFPMAFLIFNMFYWIIYKIVRREDVHNQ
# modifications: synthetic sequence of chimeric LGIC
# B2: CODA326: engineered chimeric LGIC receptor, L131A in SEQ ID NO: 33 (protein)
# chain: B1 chain with G131A
# modifications: synthetic sequence of chimeric LGIC
# System: Lenti-X 293T cells
# Assay: YFP fluorescence quenching anion reporter plate reader assay of engineered receptors stimulated with acetylcholine or a non-native ligand
# Type: cell-based
# Details: for percent quench of YFP fluorescence, 30 nM TC-6683: TC-6683 30 nM; for percent quench of YFP fluorescence, 300 nM TC-6683: TC-6683 300 nM; for percent quench of YFP fluorescence, 3 uM TC-6683: TC-6683 3 uM; for percent quench of YFP fluorescence, 30 uM TC-6683: TC-6683 30 uM; for percent quench of YFP fluorescence, 100 uM TC-6683: TC-6683 100 uM; for percent quench of YFP fluorescence, 10 uM ach: acetylcholine 10 uM; for percent quench of YFP fluorescence, 100 uM ach: acetylcholine 100 uM; for percent quench of YFP fluorescence, 1 mM ach: acetylcholine 1 mM; for percent quench of YFP fluorescence, 3 mM ach: acetylcholine 3 mM
# Source text: To screen these mutant LGICs for those having novel response profiles to ligands, an anion reporter assay was developed to assess the function of the LGICs in a high throughput format. In this assay, cells expressing a YFP reporter whose fluorescence is quenched in the presence of anion are transfected with DNA encoding the channel of interest. Upon exposure to ligand, channels that are activated will flux anion, resulting in a dose-dependent quench of the YFP that can be detected on a plate reader. The greater the quench signal (i.e., the more positive the value), the higher the ligand activity on the receptor is.
# Lenti-X 293T cells (LX293T, Clontech) were maintained in DMEM containing 10% FBS and 1% penicillin/streptomycin (Invitrogen). […] Two days before assay, cells were split at a density of 20,000 cells/well in a 96-well tissue culture plate coated with poly-d lysine (Thermo Scientific). The next day, the cells were transiently transfected with 0.1 μg of DNA per well using standard Fugene protocol (Promega). On the day of assay, cells were washed 2 times in 1× extracellular solution (1×ECS: 140 mM NaCl, 5 mM KCl, 1 mM MgCl2, 2 mM CaCl2), 10 mM HEPES, 10 mM glucose, pH 7.2, mOsms 300). After the last wash, 100 μL of 1×ECS was added to the wells and the plate was incubated at 37° C. for 30 min. While incubating the plate, the drugs were diluted to a 2× concentration in 1×ECS-NaI (same components as 1×ECS except the 140 mM NaCl was replaced by 140 mM NaI). The plates were then read on a Flexstation3 (Molecular Devices). Each well, 8 wells at a time, of the plate is read for 2 min using a Flexstation3 (Molecular Devices) as follows: 1) a baseline YFP fluorescence is read for 17 sec, 2) 100 μL of ligand is added, and 3) the changes in YFP fluorescence are then measured every 1.3 sec for 1 minute and 43 seconds. The percent quench is calculated from the average fluorescence of the last 10 seconds of the read divided by the baseline average of the first 15 seconds prior to the ligand addition.
# FIGS. 1A-1J provide heat maps of the percent quench of YFP fluorescence following stimulation by various doses of either acetylcholine or the non-native ligand as indicated in the Figures. CODA71 (SEQ ID NO: 33) was used as a control, and CODA75 (SEQ ID NO: 29, a non-responding chimeric engineered receptor) was used as the negative control. Quenching of the fluorescence signal, as indicated by blue shaded cells, indicate the level of engineered receptor activation by the non-native ligand at that concentration.
molecule,measurement,setting,value
B1,YFP fluorescence quenching using CNL001,"1 nM CNL001, first column",74.429%
same,YFP fluorescence quenching using CNL001,"1 nM CNL001, second column",78.715%
same,YFP fluorescence quenching using TC-5619/Bradanicline,3 nM brd,68.45%
same,YFP fluorescence quenching using Varenicline,"3 nM var, first column",−12.241
same,YFP fluorescence quenching using Varenicline,"3 nM var, second column",−9.415
same,YFP fluorescence quenching using CNL001,"10 nM CNL001, first column",79.033%
same,YFP fluorescence quenching using CNL001,"10 nM CNL001, second column",79.322%
same,YFP fluorescence quenching using TC-5619/Bradanicline,30 nM brd,76.95%
same,YFP fluorescence quenching using Facinicline,30 nM fac,75.75
same,YFP fluorescence quenching using Varenicline,"30 nM var, first column",75.334
same,YFP fluorescence quenching using Varenicline,"30 nM var, second column",72.278
same,YFP fluorescence quenching using CNL001,"50 nM CNL001, first column",79.966%
same,YFP fluorescence quenching using CNL001,"50 nM CNL001, second column",80.091%
same,YFP fluorescence quenching using ABT-126,50 nM abt,−17.39%
same,YFP fluorescence quenching using CNL001,"100 nM CNL001, first column",81%
same,YFP fluorescence quenching using CNL001,"100 nM CNL001, second column",79.701%
same,YFP fluorescence quenching using CNL002,100 nM CNL002,45.62%
same,YFP fluorescence quenching using ABT-126,100 nM abt,6.89%
same,YFP fluorescence quenching using AZD-0328,100 nM azd0328,79.75%
same,YFP fluorescence quenching using ABT-126,300 nM abt,38.65%
same,YFP fluorescence quenching using AZD-0328,300 nM azd0328,80.62%
same,YFP fluorescence quenching using TC-5619/Bradanicline,300 nM brd,77.1%
same,YFP fluorescence quenching using Facinicline,300 nM fac,78.01
same,YFP fluorescence quenching using Varenicline,"300 nM var, first column",78.305
same,YFP fluorescence quenching using Varenicline,"300 nM var, second column",77.83
same,YFP fluorescence quenching using Varenicline,"500 nM var, first column",75.936
same,YFP fluorescence quenching using Varenicline,"500 nM var, second column",76.788
same,YFP fluorescence quenching using CNL001,"1 uM CNL001, first column",79.289%
same,YFP fluorescence quenching using CNL001,"1 uM CNL001, second column",80.581%
same,YFP fluorescence quenching using CNL002,1 uM CNL002,74.72%
same,YFP fluorescence quenching using ABT-126,1 uM abt,45.82%
same,YFP fluorescence quenching using TC-6987,1 uM tc6987,64.59
same,YFP fluorescence quenching using Varenicline,"1 uM var, first column",77.805
same,YFP fluorescence quenching using Varenicline,"1 uM var, second column",77.352
same,YFP fluorescence quenching using TC-6987,10 uM tc6987,76.28
same,YFP fluorescence quenching using CNL002,30 uM CNL002,77.4%
same,YFP fluorescence quenching using AZD-0328,30 uM azd0328,80.19%
same,YFP fluorescence quenching using Facinicline,30 uM fac,76.61
same,YFP fluorescence quenching using TC-6987,500 uM tc6987,70.95
same,"percent quench of YFP fluorescence, 30 nM TC-6683",,−21.27%
same,"percent quench of YFP fluorescence, 300 nM TC-6683",,−18.33%
same,"percent quench of YFP fluorescence, 3 uM TC-6683",,−7.03%
same,"percent quench of YFP fluorescence, 30 uM TC-6683",,56.84%
same,"percent quench of YFP fluorescence, 100 uM TC-6683",,64.51%
same,"percent quench of YFP fluorescence, 10 uM ach",,5.66%
same,"percent quench of YFP fluorescence, 100 uM ach",,74.07%
same,"percent quench of YFP fluorescence, 1 mM ach",,62.65%
same,"percent quench of YFP fluorescence, 3 mM ach",,69.49%
B2,YFP fluorescence quenching using CNL001,"1 nM CNL001, first column",76.424%
same,YFP fluorescence quenching using CNL001,"1 nM CNL001, second column",80.567%
same,YFP fluorescence quenching using TC-5619/Bradanicline,3 nM brd,72.24%
same,YFP fluorescence quenching using Varenicline,"3 nM var, first column",−5.939
same,YFP fluorescence quenching using Varenicline,"3 nM var, second column",−2.294
same,YFP fluorescence quenching using CNL001,"10 nM CNL001, first column",80.284%
same,YFP fluorescence quenching using CNL001,"10 nM CNL001, second column",81.232%
same,YFP fluorescence quenching using TC-5619/Bradanicline,30 nM brd,77.4%
same,YFP fluorescence quenching using Facinicline,30 nM fac,69.94
same,YFP fluorescence quenching using Varenicline,"30 nM var, first column",68.663
same,YFP fluorescence quenching using Varenicline,"30 nM var, second column",70.718
same,YFP fluorescence quenching using CNL001,"50 nM CNL001, first column",81.575%
same,YFP fluorescence quenching using CNL001,"50 nM CNL001, second column",82.544%
same,YFP fluorescence quenching using ABT-126,50 nM abt,−21.91%
same,YFP fluorescence quenching using CNL001,"100 nM CNL001, first column",81%
same,YFP fluorescence quenching using CNL001,"100 nM CNL001, second column",81.718%
same,YFP fluorescence quenching using CNL002,100 nM CNL002,27.88%
same,YFP fluorescence quenching using ABT-126,100 nM abt,−0.5%
same,YFP fluorescence quenching using AZD-0328,100 nM azd0328,80.39%
same,YFP fluorescence quenching using ABT-126,300 nM abt,34.86%
same,YFP fluorescence quenching using AZD-0328,300 nM azd0328,82.07%
same,YFP fluorescence quenching using TC-5619/Bradanicline,300 nM brd,78.02%
same,YFP fluorescence quenching using Facinicline,300 nM fac,80.07
same,YFP fluorescence quenching using Varenicline,"300 nM var, first column",79.88
same,YFP fluorescence quenching using Varenicline,"300 nM var, second column",79.742
same,YFP fluorescence quenching using Varenicline,"500 nM var, first column",79.311
same,YFP fluorescence quenching using Varenicline,"500 nM var, second column",80.029
same,YFP fluorescence quenching using CNL001,"1 uM CNL001, first column",82.334%
same,YFP fluorescence quenching using CNL001,"1 uM CNL001, second column",81.539%
same,YFP fluorescence quenching using CNL002,1 uM CNL002,73.79%
same,YFP fluorescence quenching using ABT-126,1 uM abt,56.66%
same,YFP fluorescence quenching using TC-6987,1 uM tc6987,73.37
same,YFP fluorescence quenching using Varenicline,"1 uM var, first column",80.952
same,YFP fluorescence quenching using Varenicline,"1 uM var, second column",79.329
same,YFP fluorescence quenching using TC-6987,10 uM tc6987,78.18
same,YFP fluorescence quenching using CNL002,30 uM CNL002,75.89%
same,YFP fluorescence quenching using AZD-0328,30 uM azd0328,82.23%
same,YFP fluorescence quenching using Facinicline,30 uM fac,78.32
same,YFP fluorescence quenching using TC-6987,500 uM tc6987,75.42
same,"percent quench of YFP fluorescence, 30 nM TC-6683",,−16.28%
same,"percent quench of YFP fluorescence, 300 nM TC-6683",,−11.73%
same,"percent quench of YFP fluorescence, 3 uM TC-6683",,−2.38%
same,"percent quench of YFP fluorescence, 30 uM TC-6683",,−9.77%
same,"percent quench of YFP fluorescence, 100 uM TC-6683",,0.97%
same,"percent quench of YFP fluorescence, 10 uM ach",,7.43%
same,"percent quench of YFP fluorescence, 100 uM ach",,73.57%
same,"percent quench of YFP fluorescence, 1 mM ach",,71.8%
same,"percent quench of YFP fluorescence, 3 mM ach",,74.49%
